41 sequences from the nanobody polyreactivity screen of Harvey et al. (2022) can be followed below.

A short description of this data set: yeast display, Sf9 membrane polyspecificity reagent, FACS + sequencing; frameworks hold sequencing errors. In short, it runs like this: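 After 36–48 hours of galactose induction, yeast (Saccharomyces cerevisiae BJ5465) displaying a synthetic nanobody library were stained at 4 °C for 1 hour with 10% biotinylated, detergent-solubilized Sf9 membrane reagent. Streptavidin microbeads enriched the stained cells before FACS sorting into low and high (top ~1%) gates on anti-HA and streptavidin fluorescence. Each clone's polyreactivity label reflects its gate of origin.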
Regarding “QVQLVESGGGLVQAGGSLRLSCAASGSTFEDNAMGWYRQAPGKERELVAVITWTGGSTYYADSVKGRFTISRDNAKNTVYLQMNSLKPEDTAGYYCAADGVVPGRFFWPAHAYDYCGQGTQVTVSS”, the “polyreactivity (PSR sort gate)” value was “low polyreactivity”. Then “QVQLVESGGGLVQAGGSLRLSCAASGSTFEFYAMGWYRQAPGKERELVASITSSSGPTYYADSVKGRFTISRDNAKNTVYLQMNSLKPEDTAVYYCAKRPIRYYHLLRGNYWGQGTQVTVSS”, with “low polyreactivity”; and “QVQLVESGGGLVQAGGSLRLSCAASGSTFEGNAMGWYRQAPGKERELVAAINSVAITNYADSVKGRFTISRDNAKNTVYLQMNSLKPEDTAVYYCNAQTNRPWGWPIGYDYWGQGTQVTVSS”, with “low polyreactivity”. Then “QVQLVESGGGLVQAGGSLRLSCAASGSTFEGNDMGWYRQAPGKERELVASITSDTSTYADSVKGRFTISRDNAKNTVYLQMNSLKPEDTAVYYCNTGSYAETYYWITDPYDYWGQGTQVNVSS”, with “low polyreactivity”; and “QVQLVESGGGLVQAGGSLRLSCAASGSTFEIYAMGWYRQAPGKERELVAAITRSGRTNYADSVKGRFTISRDNAKNTVYLQMNSLKPEDTAVYYCAAGVWGRDRKYGYWGQGTQVTVSS”, with “high polyreactivity”; and “QVQLVESGGGLVQAGGSLRLSCAASGSTFELYAMGLYRQAPGKERELVASITGDSTNYADSVKGRFTISRDNAKNTVYLQMNSLKPEDTAVYYCAAEYVPYYEYESWGQGTQVTVSS”, with “low polyreactivity”. Then “QVQLVESGGGLVQAGGSLRLSCAASGSTFEPNAMGWYRQAPGKERELVAAIDTDASTYYADSVKGRFTISRDNAKNTVYLQMNSLKPEDTAVYYCAADYYIAITYYDGDDYWGQGTQVTVSS”, with “low polyreactivity”; and “QVQLVESGGGLVQAGGSLRLSCAASGSTFEPNGMGWYRQAPGKETELVAVITSGRTNYADSVKGSFTISRDNAKNTVYLQMNSLKPEDTAVYYCNAEGNGIYDYWGQGTQVTVSS”, with “low polyreactivity”. Regarding “QVQLVESGGGLVQAGGSLRLSCAASGSTFEQNAMGWYRPAPGKEREFVAAITGSGGSTYYADSVKGRFTISRDNAKNTVYLQMNSMKPEDTAVYYCAADIQDGWYWWDIYDYWGQGTQVTVSS”, the “polyreactivity (PSR sort gate)” value is listed as “low polyreactivity”. Consider “QVQLVESGGGLVQAGGSLRLSCAASGSTFERYAMGWYRQEPGKEREFVAAISAIGDSTYYADSVKGRFTITRDNAKNTVYLQMNILKPEDTAVYYCAARYTPYHIGRGYYYWGQGTQVTVSS”, for which the “polyreactivity (PSR sort gate)” value is given as “high polyreactivity”. Then “QVQLVESGGGLVQAGGSLRLSCAASGSTFETNAMGWYRQAPGKERELVAAIRWSTGNTYYADSVKGRFTISRDNAKNTVYLQMNSLKPEDTAVYDCAAYKGKHDKEGYWGQGTQVTVSS”, with “low polyreactivity”; and “QVQLVESGGGLVQAGGSLRLSCAASGSTFETYAMGWYRQAPGKERELVATISLSGGRTYYADSVKGRFTISRDNAKNTVYLQMNSLKPEDTAVYYCNADGYGNVGGGDSWGQGTQVTVSS”, with “low polyreactivity”. Then “QVQLVESGGGLVQAGGSLRLSCAASGSTFEVYAMGWYRQAPGKERELVAAINSRGTSTYYADSVKGRFTISRDNAKNTVYLQMNSLKPEDTAVYYCNAVRDWGPSQVYDGMDYWGQGTQVTVSS”, with “low polyreactivity”.

In the case of “QVQLVESGGGLVQAGGSLRLSCAASGSTFEYNAMGWYRQAPGKERELVASSTNYADSVKGRFTISRDNAKNTVYFQMNSLKPEDTAVYYCAREQGVNRNNDYWGQGTQVTVSS”, the “polyreactivity (PSR sort gate)” value is “low polyreactivity”. As for “QVQLVESGGGLVQAGGSLRLSCAASGSTFEYNAMGWYRQAPGKERELVASSTNYADSVKGRFTISRDNAKNTVYLQMNSLKPEDTAVYYCAREQGVNRNHDYRGQGTQVTVSS”, the “polyreactivity (PSR sort gate)” value is recorded as “low polyreactivity”.

For the sequence “QVQLVESGGGLVQAGGSLRLSCAASGSTFEYYVMGWYRQAPGKERELVAAISGSGGGTYYADSVKGRFTISRDNEKNTVYLQMNSLKPEDTAVYYCAAVATQEKYDYWGQGTQVTVSS”, the “polyreactivity (PSR sort gate)” value was “low polyreactivity”. Then “QVQLVESGGGLVQAGGSLRLSCAASGSTFFDYAMGWYRQAPGKERELVAAISSGGSTKYADSVKGRFTISRDNAKNTVYLQMNSLKPEDTAVYYCAATRWNGRRGYGYWGQGTQVTVSS”, with “high polyreactivity”.

As to “QVQLVESGGGLVQAGGSLRLSCAASGSTFFGNAMGWYRQAPGKERELVAAITSGGSTNYADSVKGRFTISRDNAKNTVYFQMNSLKPEDTAVYYCAKPSRWGWTGFYAYDYWGQGTQVTVSS”, the “polyreactivity (PSR sort gate)” value is “low polyreactivity”. Consider “QVQLVESGGGLVQAGGSLRLSCAASGSTFFGNAMGWYRQAPGKERELVAAITSGGSTNYADSVKGRFTISRDNAKNTVYLQMNSLKPEDTAVYYCAKPSRWGWTGFYAYDYWGQGTQVTVSS”, for which the “polyreactivity (PSR sort gate)” value is given as “low polyreactivity”.

For the sequence “QVQLVESGGGLVQAGGSLRLSCAASGSTFFGYAMGWYRQAPGKERELVATISSGDSTNYADSVKGRFTISRDNAKNTVYLQMNSLKPEDTAVYYCAAQGGDGVLALYYYWGQGTQVTVSS”, the “polyreactivity (PSR sort gate)” value was “low polyreactivity”. Then “QVQLVESGGGLVQAGGSLRLSCAASGSTFFGYVMGWDRQAPGKERELVAAIRSSGGSTYYADSVKGRFTISRDNAKNTVYLQINSLKPEDTAVYYCAASYRYDAYSHYDYWGQGTQVTVSS”, with “low polyreactivity”. As to “QVQLVESGGGLVQAGGSLRLSCAASGSTFFHYARGWYRQAPGKERELVAAISGSGGSTYYADSVKGRFTISRDNAKNTVYLQMNSLKPEDTAVYYCNARVWHYTSRTTFDYWGQGTQVTVSS”, the “polyreactivity (PSR sort gate)” value was “low polyreactivity”. Then “QVQLVESGGGLVQAGGSLRLSCAASGSTFFKNAMGWYRQAPGKERELVAAISTGGGSTTYADSVKGRFTISRDNAKNTVYLQMNSLKPEDTAVYYCAAVTLSSTYGGHDYWGQGTQVTVSS”, with “high polyreactivity”. Turning to “QVQLVESGGGLVQAGGSLRLSCAASGSTFFKYDMGWYRQAPGKDRELVAVITWSGGTTFYADSVKGRFTFSRDNAKNTVYLQMNSLKPEDTAVYYGAADYYGYRYDYWGQGTQVTVSS”, the “polyreactivity (PSR sort gate)” value was “low polyreactivity”.

As to “QVQLVESGGGLVQAGGSLRLSCAASGSTFFLYDKGWYRQAPGKERELVAAITLSGGSTYYADSVKGRFTISRDNAKNTVYLQMNSLNPEDTAVYYCADKRHGSEVGRGRDYWGQGTQVTVSS”, the “polyreactivity (PSR sort gate)” value is listed as “high polyreactivity”. Consider “QVQLVESGGGLVQAGGSLRLSCAASGSTFFLYGMGWYRQAPGKERELVAAITWNGGSTYYADSVKGRFTISRDNAKNTVYLQMNSLKPEDTAVYYCAADYYGYFSTPYDYWGQGTQVTVSS”, for which the “polyreactivity (PSR sort gate)” value is given as “low polyreactivity”.

“QVQLVESGGGLVQAGGSLRLSCAASGSTFFNYAMGLYRQAPGKERELVAAITSVGSTYYADSVKGRFTISRDNAKYTVYLQMNSLKPEDTAVYYCNAESYFWDFYDYDHWGQGTQVTVSS”: the “polyreactivity (PSR sort gate)” value is “low polyreactivity”. Then “QVQLVESGGGLVQAGGSLRLSCAASGSTFFPNAMGWYRQAPGKERELIADISISGGSTRYADSVKGRFTISRDNEKNTVYLQMNSLKPEDTAVYYCAVRRSAFYARFGRNYWGQGTQVTVSS”, with “low polyreactivity”; and “QVQLVESGGGLVQAGGSLRLSCAASGSTFFPYAMGWYRQAPGKERELVADITYSGASTYYADSVKGRFTISRDNAKNTVYLQMNSLKPEDTAVYYCAALVWYGYYSLGQGTQVTVSS”, with “low polyreactivity”; and “QVQLVESGGGLVQAGGSLRLSCAASGSTFFPYAMGWYRQAPGKVRELVAAIRWSGGRTYYADSVKGRFTISRDNPKNTVFLQMNSLKPEDTAVYYCNGYSVYVRGEYWGQGTQVTVSS”, with “high polyreactivity”. As for “QVQLVESGGGLVQAGGSLRLSCAASGSTFFQYAMGWYRQAPGKERELVAAITSGGSTNYADSVKGRFTISRDNAKNTVYLQMNSLKPEDTAVYYCAAESKSGAFDYWGQGTQVTVSS”, the “polyreactivity (PSR sort gate)” value is listed as “low polyreactivity”. For the sequence “QVQLVESGGGLVQAGGSLRLSCAASGSTFFRYAMGWYRQAPGKEREFVAAITSSGGNTYYADSVKGRFTISRDNAKNTVYLQMNSLKPEDTAVYYCAAVWYSPYVKYNYWGQGTQVTVSS”, the “polyreactivity (PSR sort gate)” value is “low polyreactivity”. With “QVQLVESGGGLVQAGGSLRLSCAASGSTFFRYAMGWYRQAPGKERELVAAISASGGRTYYADSVKGRFTISRDNAKNTVYLQMNSLKPEDTAVYYCNRQYGPYQYYYWGQGTQVTVSS”, the “polyreactivity (PSR sort gate)” value was “high polyreactivity”.

For “QVQLVESGGGLVQAGGSLRLSCAASGSTFFRYAMGWYRQAPGKERELVAAISKSGASTYYADSVKGRFTISRDNAKNTVYLQMNSLNPEDTAVYYCNADVKKSSAREWQYGYDYWGQGTQVTVSS”, the “polyreactivity (PSR sort gate)” value is “low polyreactivity”. Take “QVQLVESGGGLVQAGGSLRLSCAASGSTFFRYAMGWYRQAPGKERELVAAISWSGGTTYYADSVKGRFTISRDNAKNTVYLQMNSLKPEDTAVYYCAVDGGRWGQGTQVTVSS”: the “polyreactivity (PSR sort gate)” value is listed as “low polyreactivity”. Then “QVQLVESGGGLVQAGGSLRLSCAASGSTFFRYAMGWYRQAPGKERELVAAITSGGNTYYADSVKGRFTISRDNAKNTVYLQMNSLKPEDSAVYYCAADVYHWIHEYDYWGQGTQVTVSS”, with “low polyreactivity”; and “QVQLVESGGGLVQAGGSLRLSCAASGSTFFRYDMGWYRQAPGKERELVADINYNGGSTYYADSVKGRFTISRDNAKNTVYLQMNSLKPEDTAVYYCAAAYRVRGRTYDSWGQGTQVTVSS”, with “high polyreactivity”; and “QVQLVESGGGLVQAGGSLRLSCAASGSTFFSNAMGRYRQAPGKERELVAAISWSGGSTYYADSVKGRFTISRDNAKNTVYLKLNSLKPEDTAVYYCGADYYGYWYDFEGDHWGQGTQVTVSS”, with “low polyreactivity”. Consider “QVQLVESGGGLVQAGGSLRLSCAASGSTFFSYDMGWYRQAPGKERELVATISTSVGRTYYADSVKGRFTISRDNAKNTVYLLMNSLKPEDTAVYYCNSDSLGYLYNYYWPAYDHWGQGTQVTVSS”, for which the “polyreactivity (PSR sort gate)” value was “low polyreactivity”. Take “QVQLVESGGGLVQAGGSLRLSCAASGSTFFTYTMGWYRQAPGKERELVATITTSGGSTYYADSVKGRFTISRDNAKNTVYLQMNSLKPEDTAVYYCAADWDPGYYVQYGYDYWGQGTQVTVSS”: the “polyreactivity (PSR sort gate)” value is recorded as “low polyreactivity”. Then “QVQLVESGGGLVQAGGSLRLSCAASGSTFFVNAMGWYRQAPGKERELVAAISTSGGRTYYADSVKGRFTISRDNAKNTVYLQMNSLKPEDTAVYYCAAYLRSPKGYYYWGQGTQVTVSS”, with “high polyreactivity”.
